In patent US20210122814A1:

How the values were obtained:
[1] = target: Cell-associated proTGFβ1 (hGARP-proTGFβ1 and hLRRC33-proTGFβ1); experiment: BLI (Octet)
[2] = target: Matrix-associated proTGFβ1 (hLTBP1-proTGFβ1 and hLTBP3-proTGFβ1); experiment: BLI (Octet)
[3] = target: Cell-associated proTGFβ1 (hGARP-proTGFβ1 and hLRRC33-proTGFβ1); experiment: BLI (Octet); Cell AVRG over ECM AVRG
[4] = target: Cell-associated proTGFβ1 (hGARP-proTGFβ1 and hLRRC33-proTGFβ1); experiment: MSD-SET, hIgG4
[5] = target: Matrix-associated proTGFβ1 (hLTBP1-proTGFβ1 and hLTBP3-proTGFβ1); experiment: MSD-SET, hIgG4
[6] = target: Cell-associated proTGFβ1 (hGARP-proTGFβ1 and hLRRC33-proTGFβ1); experiment: MSD-SET, hIgG4; Cell AVRG over ECM AVRG

Binder	Cell AVRG (average KD) [1]	ECM AVRG (average KD) [2]	G/D (fold bias) [3]	Cell AVRG (average KD) [4]	ECM AVRG (average KD) [5]	G/D (fold bias) [6]
Ab21 (antibody, V domains shown) VH: EVQLVESGGGLVQPGGSLRLSCAASGFTFSSFSMDWVRQAPGKGLEWVSYISPDASTIYYADSVKGRFTISRDNAKNSLYLQMNSLRAEDTAVYYCARGVLDYGDMLDPWGQGTLVTVSS VL: DIQMTQSPSSLSASVGDRVTITCQASQDITNYLNWYQQKPGKAPKLLIYDASNLETGVPSRFSGSGSGTDFTFTISSLQPEDIATYYCQQADNHPPWTFGGGTKVEIK	0.644 nM	0.246 nM	2.61 fold	–	–	–
Ab30 (antibody, V domains shown) VH: EVQLVESGGGLVQPGGSLRLSCAASGFTFSSFSMDWVRQAPGKGLEWVSYISPDASTIYYADSVKGRFTISRDNAKNSLYLQMNSLRAEDTAVYYCARGTLDYGDMLDPWGQGTLVTVSS VL: DIQMTQSPSSLSASVGDRVTITCQASQDITNYLNWYQQKPGKAPKLLIYDASNLETGVPSRFSGSGSGTDFTFTISSLQPEDIATYYCQQADNHPPWTFGGGTKVEIK	0.684 nM	0.296 nM	2.31 fold	0.081 nM	0.029 nM	2.8 fold
Ab27 (antibody, V domains shown) VH: EVQLVESGGGLVQPGGSLRLSCAASGFTFSFYAMNWVRQAPGKGLEWVSYISPDASTIYYADSVKGRFTISRDNAKNSLYLQMNSLRAEDTAVYYCARGVLDYGDMLDPWGQGTLVTVSS VL: DIQMTQSPSSLSASVGDRVTITCQASQDITNYLNWYQQKPGKAPKLLIYDASNLETGVPSRFSGSGSGTDFTFTISSLQPEDIATYYCQQADNHPPWTFGGGTKVEIK	0.361 nM	0.208 nM	1.74 fold	–	–	–
Ab22 (antibody, V domains shown) VH: EVQLVESGGGLVQPGGSLRLSCAASGFTFGSFSMNWVRQAPGKGLEWVSYIHSDASTIYYADSVKGRFTISRDNAKNSLYLQMNSLRAEDTAVYYCARGVLDYGDMLDPWGQGTLVTVSS VL: DIQMTQSPSSLSASVGDRVTITCQASQDITNYLNWYQQKPGKAPKLLIYDASNLETGVPSRFSGSGSGTDFTFTISSLQPEDIATYYCQQADNHPPWTFGGGTKVEIK	0.695 nM	0.324 nM	2.15 fold	0.114 nM	0.042 nM	2.71 fold
Ab24 (antibody, V domains shown) VH: EVQLVESGGGLVQPGRSLRLSCAASGFTFSSFAMYWVRQAPGKGLEWVSYISPDASTIYYADSVKGRFTISRDNAKNSLYLQMNSLRAEDTAVYYCARGVLDYGDMLDPWGQGTLVTVSS VL: DIQMTQSPSSLSASVGDRVTITCQASQDITNYLNWYQQKPGKAPKLLIYDASNLETGVPSRFSGSGSGTDFTFTISSLQPEDIATYYCQQADNHPPWTFGGGTKVEIK	0.537 nM	0.222 nM	2.42 fold	0.1 nM	0.023 nM	4.35 fold
Ab26 (antibody, V domains shown) VH: EVQLVESGGGLVQPGGSLRLSCAASGFTFSSFSMDWVRQAPGKGLEWVSYISPDASTIYYADSVKGRFTISRDNAKNTLYLQMNSLRAEDTAVYYCARGVLDYGDMLDPWGQGTLVTVSS VL: DIQMTQSPSSLSASVGDRVTITCQASQDITNYLNWYQQKPGKAPKLLIYDASNLETGVPSRFSGSGSGTDFTFTISSLQPEDIATYYCQQADNHPPWTFGGGTKVEIK	0.492 nM	0.197 nM	2.5 fold	0.072 nM	0.026 nM	2.77 fold
Ab23 (antibody, V domains shown) VH: EVQLVESGGGLVQPGGSLRLSCAASGFTFSSFSMNWVRQAPGKGLEWVSYISPSADTIYYADSVKGRFTISRDNAKNTLYLQMNSLRAEDTAVYYCARGVLDYGDMLDPWGQGTLVTVSS VL: DIQMTQSPSSLSASVGDRVTITCQASQDITNYLNWYQQKPGKAPKLLIYDASNLETGVPSRFSGSGSGTDFTFTISSLQPEDIATYYCQQADNHPPWTFGGGTKVEIK	0.897 nM	0.443 nM	2.03 fold	–	–	–
Ab25 (antibody, V domains shown) VH: EVQLVESGGGLVQPGGSLRLSCAASGFTFGSFSMDWVRQAPGKGLEWVSYISPDASTIYYADSVKGRFTISRDNAKNSLYLQMNSLRAEDTAVYYCARGVLDYGDMLDPWGQGTLVTVSS VL: DIQMTQSPSSLSASVGDRVTITCQASQDITNYLNWYQQKPGKAPKLLIYDASNLETGVPSRFSGSGSGTDFTFTISSLQPEDIATYYCQQADNHPPWTFGGGTKVEIK	0.449 nM	0.184 nM	2.43 fold	–	–	–
Ab33 (antibody, V domains shown) VH: EVQLVESGGGLVQPGGSLRLSCAASGFTFSSFSMNWVRQAPGKGLEWVSYISPSADTIYYADSVKGRFTISRDNAKNTLYLQMNSLRAEDTAVYYCAHGVLDYGDMLDPWGQGTLVTVSS VL: DIQMTQSPSSLSASVGDRVTITCQASQDITNYLNWYQQKPGKAPKLLIYDASNLETGVPSRFSGSGSGTDFTFTISSLQPEDIATYYCQQADNHPPWTFGGGTKVEIK	0.302 nM	0.145 nM	2.08 fold	0.027 nM	0.009 nM	3 fold
Ab29 (antibody, V domains shown) VH: EVQLVESGGGLVQPGRSLRLSCAASGFTFSSFAMNWVRQAPGKGLEWVSYISPDASTIYYAGSVKGRFTISRDNAKNSLYLQMNSLRAEDTAVYYCVRAVLDYGDMLDPWGQGTLVTVSS VL: DIQMTQSPSSLSASVGDRVTITCQASQDITNYLNWYQQKPGKAPKLLIYDASNLETGVPSRFSGSGSGTDFTFTISSLQPEDIATYYCQQADNHPPWTFGGGTKVEIK	0.304 nM	0.155 nM	1.97 fold	0.024 nM	0.012 nM	2 fold
Ab4 (antibody, IgG4, V domains shown) VH: EVQLVESGGGLVQPGGSLRLSCAASGFTFSSYSMNWVRQAPGKGLEWVSYISSSSSTIYYADSVKGRFTISRDNAKNSLYLQMNSLRAEDTAVYYCARGVLDYGDMLDPWGQGTLVTVSS VL: DIQMTQSPSSLSASVGDRVTITCQASQDITNYLNWYQQKPGKAPKLLIYDASNLETGVPSRFSGSGSGTDFTFTISSLQPEDIATYYCQQADNHPPWTFGGGTKVEIK	–	–	–	2.3 nM	5.05 nM	0.42 fold
Ab31 (antibody, V domains shown) VH: EVQLVESGGGLVQPGGSLRLSCAASGFTFSSFSMDWVRQAPGKGLEWVSYISPDASTIYYADSVKGRFTISRDNAKNTLYLQMNSLRAEDTAVYYCARAVLDYGDMLDPWGQGTLVTVSS VL: DIQMTQSPSSLSASVGDRVTITCQASQDITNYLNWYQQKPGKAPKLLIYDASNLETGVPSRFSGSGSGTDFTFTISSLQPEDIATYYCQQADNHPPWTFGGGTKVEIK	0.495 nM	0.208 nM	2.38 fold	0.058 nM	0.017 nM	3.41 fold
Ab32 (antibody, V domains shown) VH: EVQLVESGGGLVQPGGSLRLSCAASGFTFSSFSMNWVRQAPGKGLEWVSYISPSADTIYYADSVKGRFTISRDNAKNTLYLQMNSLRAEDTAVYYCARGVWDMGDMLDPWGQGTLVTVSS VL: DIQMTQSPSSLSASVGDRVTITCQASQDITNYLNWYQQKPGKAPKLLIYDASNLETGVPSRFSGSGSGTDFTFTISSLQPEDIATYYCQQADNHPPWTFGGGTKVEIK	0.597 nM	0.242 nM	2.47 fold	0.051 nM	0.032 nM	1.6 fold
Ab28 (antibody, V domains shown) VH: EVQLVESGGGLVQPGGSLRLSCAASGFTFSSFSMDWVRQAPGKGLEWVSYISPDASTIYYADSVKGRFTISRDNAKNSLYLQMNSLRAEDTAVYYCVRGVLDYGDMLDPWGQGTLVTVSS VL: DIQMTQSPSSLSASVGDRVTITCQASQDITNYLNWYQQKPGKAPKLLIYDASNLETGVPSRFSGSGSGTDFTFTISSLQPEDIATYYCQQADNHPPWTFGGGTKVEIK	0.603 nM	0.328 nM	1.84 fold	–	–	–
